# Test results from patent US20260055184A1 (Hoffmann-La Roche, published 2026).
# Tests used:
# [1] = molecular target: T1, HER1 extracellular domain (human, UniProt P00533 25-645); assay: SPR (Biacore T100), HER1 extracellular domain amine-coupled on a CM5 chip, antibody as analyte, 37 °C, 1:1 Langmuir model
# T1 construct: extracellular domain
# Description: (§1) HER1 was immobilized on the surface of a CM5 biosensorchip using standard amine-coupling chemistry. The HER1 extracellular domain was injected in sodium acetate, pH 5.0 at 1 μg/ml. Reference control flow cells were treated in the same way but with vehicle buffer only. […] The association phase was 3 minutes and the dissociation time was 10 minutes. […] Kinetic rate constants and equilibrium dissociation constants were calculated by using the 1:1 Langmuir binding model within the Biaevaluation software.
# [2] = molecular target: T1, HER1 extracellular domain; assay: SPR Biacore T100; HER1 extracellular domain amine-coupled on CM5, antibody injected at 3.125-50 nM, 1:1 Langmuir model
# Description: as §1
# [3] = molecular target: T2, CD3 binder CH2527 (VL_7-46(13)/VH_3-23(12)), as analyte MAK<CEA/CD3>rH; assay: SPR (Biacore), 37°C, analyte MAK<CEA/CD3>rH
# T2 construct: the rest of the analyte MAK<CEA/CD3>rH (a CEA/CD3 molecule by its name) is not described
# [4] = molecular target: T2, CD3 binder CH2527 …; assay: SPR (Biacore), 25°C, analyte MAK<CEA/CD3>rH
Binder,koff [1] [s⁻¹],kon [1] [M⁻¹ s⁻¹],Kd [2] [nM],Kd [3] [nM],koff [3] [s⁻¹],kon [3] [M⁻¹ s⁻¹],Kd [4] [nM],koff [4] [s⁻¹],kon [4] [M⁻¹ s⁻¹]
"HER1-binding IgG1 antibody GA201 (antibody, V domains shown, produced in 293-F cells; also called anti HER1 antibody GA201; GA201 parental unmasked antibody) VH: QVQLVQSGAEVKKPGSSVKVSCKASGFTFTDYKIHWVRQAPGQGLEWMGYFNPNSGYSTYAQKFQGRVTITADKSTSTAYMELSSLRSEDTAVYYCARLSPGGYYVMDAWGQGTTVTVSS VL: DIQMTQSPSSLSASVGDRVTITCRASQGINNYLNWYQQKPGKAPKRLIYNTNNLQTGVPSRFSGSGSGTEFTLTISSLQPEDFATYYCLQHNSFPTFGQGTKLEIKR",0.00012,168000,1,,,,,,
"4.24.72 (antibody, V domains shown) VH: QIQLVQSGPELKKPGETVKISCKASGYTVTDYSMNWVKQAPGKCLKWMGWINTETGEPRYTDDFKGRFAFSLETSASTAYLQINNLKNEDSATYFCAREGDYDVFDYWGHGTTLKVSS VL: DIVLTQSPASLAVSLGQRATISCRASKSVSTSSYSYMHWYQQKPGQPPKLLIKYVSYLESGVPARFSGSGSGTDFTLNIHPVEEEDAATYYCQHSREFPYTFGCGTKLEIK",,,,29,0.00445,155000,14,0.00118,87200
"anti-idiotypic CH2527 binder 4.32.63 (scFv, From mouse hybridomas (immunisation with CH2527 Fab)) scFv: QVQLKESGPGLVAPSQSLSITCTVSGFSLTSYGVSWVRQPPGKCLEWLGIIWGDGSTNYHSALISRLSISKDNSKSQVFLKLNSLQTDDTATYYCAKGITTVVDDYYAMDYWGQGTSVTVSSGGGGSGGGGSGGGGSGGGGSDIQMTQSPASLSASVGETVTITCRASENIDSYLAWYQQKQGKSPQLLVYAATFLADDVPSRFSGSGSGTQYSLKINSLQSEDVARYYCQHYYSTPYTFGCGTKLEIK",,,,2,0.000652,346000,1,0.000105,196000
"anti-idiotypic CH2527 binder 4.15.64 (scFv, From mouse hybridomas (immunisation with CH2527 Fab)) scFv: QIQLVQSGPELKKPGETVRISCKASGYTFTDYSIHWVKQAPGKCLKWMGWINTETGEPAYADDFKGRFAFSLETSASTAYLQINNLKNEDTATFFCAHPYDYDVLDYWGQGTSVTVSSGGGGSGGGGSGGGGSGGGGSDTVLTQSPASLGVSLGQRATISCRASKSVSTSNYSYIHWYQQKPGQPPKLLIKYVSYLESGVPARFSGSGSGTDFTLNIHPVEEEDAATYYCQHSREFPWTFGCGTKLEIK",,,,94,0.0135,144000,96,0.0025,26100
